Laboratory results as given in PMC2121097.
pKd: −log10 of the molar value. Like-named read-outs stand apart in the source and are kept apart here.

Key:
[1] = target: Dictyostelium actin filaments (F-actin) (Dictyostelium) (UniProt P07830); test: steady-state actin critical concentration, sedimentation
[2] = target: Dictyostelium actin filaments (F-actin) (Dictyostelium) (UniProt P07830); test: steady-state actin critical concentration, calibrated pyrene fluorescence
[3] = target: Dictyostelium actin filaments (F-actin) (Dictyostelium) (UniProt P07830); test: steady-state actin critical concentration, uncalibrated pyrene fluorescence
[4] = target: Dictyostelium actin monomer (G-actin) (Dictyostelium) (UniProt P07830); test: other fluorescence titration
[5] = target: Dictyostelium actin monomer (G-actin) (Dictyostelium) (UniProt P07830); test: other fluorescence titration; remark: listed apart in the source
[6] = target: Dictyostelium actin monomer (G-actin) (Dictyostelium) (UniProt P07830); test: other fluorescence titration; remark: listed apart in the source

A pKd [1] of 6.40, a pKd [2] of 6.85 and a pKd [3] of 6.04 were found for “Dictyostelium elongation factor 1 alpha (EF1 alpha) (from UniProt P0CT31 1-453) (natural protein)” in this work. The pKd [4] was 6.15, the pKd [5] was 5.41 and the pKd [6] was 5.85.
